# Measurements published in patent US20100285988A1.
# What was measured:
# [1] = target: γ-secretase (human; HeLa cell membrane / solubilized HeLa membrane; endogenous in HEK293 cells) (human) (UniProt P49768); test: cell-based or functional assay
# [2] = target: γ-secretase (mouse; mouse brain membrane, N2A neuroblastoma cells) (mouse); test: cell-based or functional assay
substance,measurement,setting,value
recombinant βCTF with the Flemish mutation (A21G) (from UniProt P05067 672-770),reaction rate of γ-secretase (Aβ40 production in vitro) relative to WT βCTF,[1],3 fold
αCTF-FLAG (recombinant α-secretase cleaved APP C-terminal fragment) (from UniProt P05067 688-770),"inhibition of X40 production, αCTF at 0.25 µM",[1],24%
same,"inhibition of X40 production, αCTF at 0.5 µM",[1],32%
same,"inhibition of X40 production, αCTF at 1.0 µM",[1],60%
same,"suppression of γ-secretase activity for Aβ production from 1 µM βCTF, αCTF at 0.25 µM",[1],66%
same,"suppression of γ-secretase activity for Aβ production from 1 µM βCTF, αCTF at 0.5 µM",[1],71%
same,"suppression of γ-secretase activity for Aβ production from 1 µM βCTF, αCTF at 1.0 µM",[1],82%
βCTFΔ (Aβ17-23 deleted form of βCTF),"reaction rate of γ-secretase, 40-site production, relative to βCTF (mouse brain membrane)",[2],25 fold
same,"reaction rate of γ-secretase, 42-site production, relative to βCTF (mouse brain membrane)",[2],11 fold
same,rate of γ-secretase activity for Aβ38 production relative to βCTF (HeLa membrane),[1],< 10 fold
same,secreted Aβ40 from transfected HEK293T cells relative to SPβCTF (ECL),[1],10 fold
